In patent US20260078398A1, “PLANTS GENETICALLY ENGINEERED FOR INCREASED WATER USE EFFICIENCY AND CARBON INTAKE AND METHODS FOR MAKING AND USING THEM” (The Regents of the University of California, priority 2022, published 2026):

What was measured:
[1] = test system: Brachypodium distachyon; assay: stomatal conductance after ABA added to the transpiration stream (gas exchange analyzer); format: in vivo; settings: 2 μM ABA
Experimental: We next investigated stomatal closure in response to abscisic acid.
(top infrared thermal image, bottom photo of the same plants). • (B) Stomatal density and (C) stomatal index were determined using leaf imprints created of the 4th true leaf of plants with 3 independent replicates plants per genotype with 4 images per plant. Circles represent counts per each image while diamonds are the average per each plant. Error bars represent SEM while p-values were obtained from two-tailed t-tests comparing mutant to WT. • (D) Stomatal conductance was quantified using a gas exchange analyzer. […] Data shown are the average of n=3±SEM plants per genotype using 1 leaf per experiment and genotype.
FIG. 14 (or FIG. 8 of Example 2): Bdmpk5 CRISPR Alleles Show Strong CO2 insensitivity but functional ABA responses. • (A, B) 5 to 6 week old plants were analyzed in time-resolved stomatal conductance analyses. • (A) CRISPR alleles show strongly impaired stomatal responses to CO2 shifts. […] Data shown are the average of n=3±SEM experiments using one leaf per experiment and genotype. • (C,D) Stomatal density (C) and stomatal index (D) were determined using leaf imprints created of the 4th true leaf with 3 replicate plants and genotype. […]

[2] = test system: BdMPK5, HT1 and CBC1; assay: in vitro phosphorylation assay with GST-CBC1, His-HT1 and His-BdMPK5; format: biochemical, Brachypodium distachyon; settings: with or without 20 mM NaHCO3, n=2
Experimental: Furthermore, this activation of CBC1 is inhibited by elevated CO2/bicarbonate only when HT1, CBC1 and MPK4 or MPK12 are included in the reconstituted reaction (Takahashi et al., 2022). […] The high CO2/bicarbonate response was similar to high CO2 responses found for AtMPK4 and AtMPK12, but not for the close homolog AtMPK11 (Takahashi et al., 2022).
In vitro phosphorylation assays were performed using GST-CBC1, His-HT1 and His-BdMPK5 (WT or D90N) recombinant proteins with or without 20 mM NaHCO3. Phosphorylation levels of CBC1 (top) and Coomassie brilliant blue (CBB)-stained gels (bottom) are shown. • (B) AlphaFold2-predicted complex of BdMPK5 with HT1. BdMPK5 is shown in red, while HT1 is shown in blue. The BdMPK5-D90 residue, which is mutant in chill1, is colored green, and is predicted, based on the wildtype BdMPK5-HT1 simulation, to lie at the interface of BdMPK5 and HT1.

[3] = target: T1, GST-CBC1 (recombinant Arabidopsis Raf-like kinase CBC1 with GST tag)
T1 sequence (Q9SSA4 whole entry, looked up): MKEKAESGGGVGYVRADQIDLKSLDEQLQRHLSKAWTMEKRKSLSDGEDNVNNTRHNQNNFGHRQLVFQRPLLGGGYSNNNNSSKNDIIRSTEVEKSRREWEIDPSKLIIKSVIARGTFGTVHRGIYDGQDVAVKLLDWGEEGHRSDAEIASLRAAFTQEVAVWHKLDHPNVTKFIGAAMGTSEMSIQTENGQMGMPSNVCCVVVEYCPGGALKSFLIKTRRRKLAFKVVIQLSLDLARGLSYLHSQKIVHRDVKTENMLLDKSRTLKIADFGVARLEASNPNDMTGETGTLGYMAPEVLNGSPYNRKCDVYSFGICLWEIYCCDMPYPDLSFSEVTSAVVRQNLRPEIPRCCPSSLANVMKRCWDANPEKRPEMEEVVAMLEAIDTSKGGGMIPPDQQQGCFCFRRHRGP

[4] = test system: MPK4 and HT1; assay: in vitro pull-down assay, His-HT1 with GST-MPK4; format: binding, Arabidopsis; settings: pull-down with or without 20 mM NaHCO3
Experimental: We therefore investigated a possible binding between MPK4 and HT1 and the effect of HCO3^−.
FIG. 4. […] CO2 concentration changes were applied as indicated on top (p.p.m.). n=6 experiments, error bars show ±SEM. • (J) Model of plant stomatal CO2 sensor and signaling (see text).
FIG. 6. […] Precipitated proteins were washed with buffers supplemented with NaHCO3 at the indicated concentrations (0, 2 or 20 mM). See FIG. 4d for an independent experiment. To control for effects of Na^+, 20 mM NaCl (0 mM NaHCO3) for lanes 1 and 4 were included in the buffers; and 18 mM NaCl (2 mM NaHCO3) for lane 3 were included in buffer.

[5] = target: T2, GST-MPK4 (recombinant Arabidopsis MAP kinase MPK4 with GST tag)
T2 chain: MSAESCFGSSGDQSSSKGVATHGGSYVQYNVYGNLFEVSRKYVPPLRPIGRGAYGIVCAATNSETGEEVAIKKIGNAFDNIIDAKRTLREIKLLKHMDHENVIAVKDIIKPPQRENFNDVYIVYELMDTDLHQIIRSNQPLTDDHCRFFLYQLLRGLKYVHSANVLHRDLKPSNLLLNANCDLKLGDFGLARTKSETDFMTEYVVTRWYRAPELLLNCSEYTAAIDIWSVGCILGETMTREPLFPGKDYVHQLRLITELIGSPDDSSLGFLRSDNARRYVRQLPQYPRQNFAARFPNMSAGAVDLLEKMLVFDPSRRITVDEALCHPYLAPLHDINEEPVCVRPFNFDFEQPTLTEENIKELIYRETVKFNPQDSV

[6] = test system: MPK4/12, HT1 and CBC1 recombinant proteins; assay: in vitro phosphorylation assay: NaHCO3-dependent down-regulation of HT1-mediated CBC1 phosphorylation; format: biochemical, Arabidopsis; settings: isoform replaces wild type protein or is added; 20 mM NaHCO3 vs NaCl control, 30 min
Experimental: We tested whether this HT1-mediated activation of CBC1 is inhibited by CO2/bicarbonate by adding NaHCO3 in in vitro phosphorylation reactions. […]
FIG. 2. […] Histone was used as an artificial protein kinase substrate. • (B) MPK4, HT1 and CBC1 proteins were incubated with NaHCO3 at the indicated concentrations for 30 min, and in vitro phosphorylation assays were performed. • (C) CBC1 band intensities as shown in (B) were measured using IMAGEJ™, n=4 experiments, error bars show ±S.D. • (D) MPK4, HT1 and CBC1 proteins were incubated in reaction buffers adjusted at different pH (6.5 to 8.5) for 30 min, and in vitro phosphorylation assays were performed. • (E) CBC1 band intensities and the density-ratios of ‘+NaHCO3’ to ‘—NaHCO3’ (=+NaCl controls) for each pH condition
FIG. 3. […] Ambient CO2 concentrations are indicated by the top bars. n=7 experiments, error bars show ±SEM. • (C) Recombinant HT1 (wild type, HT1-G89R or HT1-R173Q) and CBC1 proteins were incubated with MPK4 in the presence or absence of 20 mM NaHCO3 or 20 mM NaCl (−controls) for 30 min, and in vitro phosphorylation assays were performed. • (D) Recombinant MPK12, CBC1 and HT1 (WT or R102K) proteins were incubated with or without 20 mM NaHCO3 or 20 mM NaCl (−controls) for 30 min, and in vitro phosphorylation assays were performed. Histone was used as an artificial kinase substrate. • (E) HT1 (WT or A109V) proteins were used for in vitro phosphorylation assays. Proteins were incubated with or without 20 mM NaHCO3 or 20 mM NaCl (−controls) for 30 min. • (F) Stomatal conductances were analyzed using intact plants of Arabidopsis (Col-0 (WT), cbc1 cbc2, ht1-A109V and cbc1 cbc2 ht1-A109V). CO2 concentration changes were applied as indicated on top (p.p.m.). […]

CC1=CC(=O)CC(C)(C)[C@@]1(O)/C=C/C(C)=C\C(=O)O [ABA, abscisic acid]
stomatal conductance response to ABA ([1]; T3 BdMPK5 CRISPR lines): steep decline in conductance | stomatal conductance response to ABA ([1]; chill1 leaves, 5-week old): responded similarly to WT

B1: BdMPK5: recombinant Brachypodium distachyon MAP kinase BdMPK5, SEQ ID NO: 13 (protein)
chain: MRMEGGGAGPAAAAAAGGAHGLGEAQIKGTLTHGGRYVQYNVYGNLFEVSAKYVPPIRPVGRGACGIICAAINVQTREEVAIKKIGNAFDNQIDAKRTLREVKLLRHMNHENVISIKDIIRPPRRENFNDVYIVYELMDTDLHHLLRSNQPLTDDHCQYFLYQVLRGLKYVHSANVLHRDLRPSNLLLNAKCDLKIGDFGLARTTTETDFMMEYVVTRWYRAPELLLNCSEYTGAIDMWSVGCILGEIATREPLFPGKDYVHQLRLITELLGSPDDTSLGFLRSDNARRYVRSLPQYPKQQFRSRFPNMSSGAMDLLERMLVFDPNKRITVDEALCHPYLASLHEINDEPVCPAPFSFDFEQPSFTEEDIKELIWRESVKFNPEPIH
modifications: Synthetic: Bd21-3 (WT) BdMPK5
high CO2/bicarbonate-mediated down-regulation of CBC1 phosphorylation with BdMPK5 protein [2]: high CO2/bicarbonate-induced down-regulation of the CBC1 protein kinase activity

B2: BdMPK5-D90N: chill1 variant of BdMPK5 protein, SEQ ID NO: 14 (protein)
chain: MRMEGGGAGPAAAAAAGGAHGLGEAQIKGTLTHGGRYVQYNVYGNLFEVSAKYVPPIRPVGRGACGIICAAINVQTREEVAIKKIGNAFNNQIDAKRTLREVKLLRHMNHENVISIKDIIRPPRRENFNDVYIVYELMDTDLHHLLRSNQPLTDDHCQYFLYQVLRGLKYVHSANVLHRDLRPSNLLLNAKCDLKIGDFGLARTTTETDFMMEYVVTRWYRAPELLLNCSEYTGAIDMWSVGCILGEIATREPLFPGKDYVHQLRLITELLGSPDDTSLGFLRSDNARRYVRSLPQYPKQQFRSRFPNMSSGAMDLLERMLVFDPNKRITVDEALCHPYLASLHEINDEPVCPAPFSFDFEQPSFTEEDIKELIWRESVKFNPEPIH
modifications: Synthetic: Chill1 BdMPK5
high CO2/bicarbonate-mediated down-regulation of CBC1 phosphorylation with BdMPK5 protein [2]: abrogated the high CO2/bicarbonate-mediated downregulation of CBC1 phosphorylation

B3: His-HT1 (recombinant Arabidopsis HT1 protein kinase, wild type, with His tag) (protein)
chain: MSGLCFNPFRLRWSLRSKLPLEPSLPNLPCNPSSSKTNRYAEAETMEKKRFDSMESWSMILESENVETWEASKGEREEWTADLSQLFIGNKFASGAHSRIYRGIYKQRAVAVKMVRIPTHKEETRAKLEQQFKSEVALLSRLFHPNIVQFIAACKKPPVYCIITEYMSQGNLRMYLNKKEPYSLSIETVLRLALDISRGMEYLHSQGVIHRDLKSNNLLLNDEMRVKVADFGTSCLETQCREAKGNMGTYRWMAPEMIKEKPYTRKVDVYSFGIVLWELTTALLPFQGMTPVQAAFAVAEKNERPPLPASCQPALAHLIKRCWSENPSKRPDFSNIVAVLEKYDECVKEGLPLTSHASLTKTKKAILDHLKGCVTSISSPFSSSSVPVNA
CBC1 phosphorylation, in vitro phosphorylation assay with radioactive 32P-ATP (FIG. 5) [3]: We confirmed CBC1 phosphorylation by HT1 using recombinant His-HT1 and GST-CBC1 proteins

B4: HT1-R173Q (protein)
chain: MSGLCFNPFRLRWSLRSKLPLEPSLPNLPCNPSSSKTNRYAEAETMEKKRFDSMESWSMILESENVETWEASKGEREEWTADLSQLFIGNKFASGAHSRIYRGIYKQRAVAVKMVRIPTHKEETRAKLEQQFKSEVALLSRLFHPNIVQFIAACKKPPVYCIITEYMSQGNLQMYLNKKEPYSLSIETVLRLALDISRGMEYLHSQGVIHRDLKSNNLLLNDEMRVKVADFGTSCLETQCREAKGNMGTYRWMAPEMIKEKPYTRKVDVYSFGIVLWELTTALLPFQGMTPVQAAFAVAEKNERPPLPASCQPALAHLIKRCWSENPSKRPDFSNIVAVLEKYDECVKEGLPLTSHASLTKTKKAILDHLKGCVTSISSPFSSSSVPVNA
HCO3- dependent binding of HT1 isoform with MPK4 [4]: partially interact with MPK4 | NaHCO3-dependent CBC1 downregulation, in vitro phosphorylation assay with MPK4 and CBC1 (FIG. 3C) [5]: the R173Q mutation partly impaired the NaHCO3-dependent CBC1 downregulation | NaHCO3-mediated down-regulation of CBC1 phosphorylation/activity with the protein isoform in the reaction [6]: partly impaired the NaHCO3-dependent CBC1 downregulation
